Laboratory results reported in article PMC11757143, “Generation and characterization of OX40-ligand fusion protein that agonizes OX40 on T-Lymphocytes” (Frontiers in Immunology, 2025).

Assays:
[1] = system: antigen-specific T cell responses of draining lymph node cells; experiment: Antigen recall responses of dLN cells from TNP-KLH/CFA-immunized mice (cytokine ELISA, MTT proliferation); format: in vivo, C57BL/6 mice; settings: for antigen-specific T cell responses (recall IFN-γ, IL-17, IL-4 production and proliferation of dLN cells): 20 µg i.p. on days 1 and 3, TNP-KLH/CFA day 0, dLN day 7, KLH recall 3 days
Source text: The following reagents were used for the measurement of cytokines from T cells: anti-IL-2 (JES6-1A12, 503701, BioLegend, San Diego, CA, U.S.A.) capture antibody, biotin-anti-IL-2 (JES6-5H4, 503803, BioLegend) detection antibody, anti-IFN-γ (R4-6A2, 505702, BioLegend) capture antibody, biotin-anti-IFN-γ (XMG1.2, 505804, BioLegend) detection antibody, anti-IL-4 (11B11, 504101, BioLegend) capture antibody, biotin-anti-IL-4 (BVD6-24G2, 504201, BioLegend) detection antibody, anti-IL-17A (TC11-18H10.1, 506901, BioLegend) capture antibody, biotin-anti-IL-17A (TC11-8H4, 507001, BioLegend) detection antibody, HRP streptavidin (405210, BioLegend), and 3,3’,5,5’-tetramethylbenzidine (TMB, 421101, BioLegend). The absorbance was measured at 450 nm or 620 nm using a FilterMax F5 (Molecular Devices, San Jose, CA, U.S.A.).
Groups of C57BL/6 mice from both male and female mice aged between 5 and 15 weeks were immunized subcutaneously at the footpad with 100 µg of 2,4,6-trinitrophenyl-conjugated keyhole limpet hemocyanin (TNP-KLH) emulsified in complete Freund’s adjuvant (CFA) (F5881, Merck) on day 0. Recombinant proteins in PBS were injected intraperitoneally on days 1 and 3. On day 7, pooled dLN cells were plated in 200 µL volumes in 96-well plates in triplicate in the presence or absence of KLH. Cells were harvested at 18 hours for the AIM assay. Culture supernatants were harvested at 72 hours for cytokine ELISA. Cell viability on day 3 was assessed with a 3-(4,5-dimethylthiazol-2-yl)-2,5-diphenyl-tetrazolium (MTT) (M2128, Merck) assay.

[2] = system: antigen-specific CD4+ T cells; experiment: Activation-induced marker (AIM) assay on dLN cells from TNP-KLH/CFA-immunized mice; format: in vivo, C57BL/6 mice; settings: 20 µg i.p. on days 1 and 3, KLH 18 hours
Method: To perform the activation-induced marker (AIM) assay, a valuable method to detect antigen-specific CD4^+ T cells ([29], [30]), draining lymph node (dLN) cells were initially incubated with IgG from rat serum (14131, Merck) to block nonspecific binding. The following antibodies were used for cell-surface staining: PE/Cyanine7 anti-mouse CD4 (GK1.5, 100421, BioLegend), Alexa Fluor® 488 anti-mouse CD25 (PC61, 102018, BioLegend), and APC anti-mouse CD134 (OX-40) (OX-86, 119413, BioLegend). For Foxp3 staining, cells were fixed and permeabilized with the eBioscience™ Foxp3/Transcription Factor Staining Buffer Set (00-5523-00, Thermo Fisher), then stained with PE Anti-Mo/Ra FOXP3, eBioscience™ (FJK-16s, 12-5773-08, Thermo Fisher). Data were acquired on a FACS Canto II or a Celesta (BD Biosciences, Franklin Lakes, NJ, U.S.A.) and analyzed with BD FACS Diva software version 9 or Flowing software version 2 (Turku Bioscience, Turku, Finland, http://flowingsoftware.btk.fi/).
Groups of C57BL/6 mice from both male and female mice aged between 5 and 15 weeks were immunized subcutaneously at the footpad with 100 µg of 2,4,6-trinitrophenyl-conjugated keyhole limpet hemocyanin (TNP-KLH) emulsified in complete Freund’s adjuvant (CFA) (F5881, Merck) on day 0. […] Cell viability on day 3 was assessed with a 3-(4,5-dimethylthiazol-2-yl)-2,5-diphenyl-tetrazolium (MTT) (M2128, Merck) assay.

OX40-Fc = biological target: T1, OX40-Fc (Mus musculus, UniProt P47741); parameters: method as in PMID 36450532, PMID 37371066; settings: previous studies; ref [23], [24]; cited from earlier work
T1 construct: made in house
T1 sequence (P47741 20-211 limits assumed): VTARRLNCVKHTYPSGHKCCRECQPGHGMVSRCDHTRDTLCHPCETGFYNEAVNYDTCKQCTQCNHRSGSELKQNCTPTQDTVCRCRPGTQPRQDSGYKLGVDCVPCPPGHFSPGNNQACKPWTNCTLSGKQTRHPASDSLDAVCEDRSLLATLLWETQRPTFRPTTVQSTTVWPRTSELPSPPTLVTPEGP

Molecule	antigen-specific T cell responses (recall IFN-γ, IL-17, IL-4 production and proliferation of dLN cells) [1]	induction of IL-4-producing cells ([1]; TNP-KLH/CFA-immunized mice, Figures 7, 9)	frequency of OX40+CD25+Foxp3+CD4+ cells (AIM assay) [2]	frequency of OX40+CD25+Foxp3-CD4+ cells (AIM assay) ([2]; compared to control (PBS) or OX86)	specific interaction with OX40 (OX40-Fc)
Fc-scOX40L: Fusion protein: Fc, PA, single-chain OX40L trimer (three OX40L joined by GGGSGGG linkers), His6; dimer of trimers (protein, left off: Fc (human IgG1: hinge, CH2, CH3), N-terminal, kept | PA tag (…), internal (between Fc and the first OX40L), kept | His6, C-terminal, kept, Fusion protein: Fc, PA, single-chain OX40L trimer (three OX40L joined by GGGSGGG linkers), His6; dimer of trimers) SSSPAKDPPIQRLRGAVTRCEDGQLFISSYKNEYQTMEVQNNSVVIKCDGLYIIYLKGSFFQEVKIDLHFREDHNPISIPMLNDGRRIVFTVVASLAFKDKVYLTVNAPDTLCEHLQINDGELIVVQLTPGYCAPEGSYHSTVNQVPLGGGSGGGSSSPAKDPPIQRLRGAVTRCEDGQLFISSYKNEYQTMEVQNNSVVIKCDGLYIIYLKGSFFQEVKIDLHFREDHNPISIPMLNDGRRIVFTVVASLAFKDKVYLTVNAPDTLCEHLQINDGELIVVQLTPGYCAPEGSYHSTVNQVPLGGGSGGGSSSPAKDPPIQRLRGAVTRCEDGQLFISSYKNEYQTMEVQNNSVVIKCDGLYIIYLKGSFFQEVKIDLHFREDHNPISIPMLNDGRRIVFTVVASLAFKDKVYLTVNAPDTLCEHLQINDGELIVVQLTPGYCAPEGSYHSTVNQVPL	elicited stronger antigen-specific T cell responses than Fc-MBL-OX40L (B) and scOX40L-Fc (D)	promoted the induction of IL-4-producing cells	significantly enhanced frequency	significantly increased frequency	specifically interact with OX40
scOX40L-Fc: Fusion protein: OX40L, Linker, OX40L, Linker, OX40L, Fc, PA, and His6 (protein, left off: Fc (human IgG1: hinge, CH2, CH3), C-terminal, kept | PA tag (…), C-terminal, kept | His6, C-terminal, kept) SSSPAKDPPIQRLRGAVTRCEDGQLFISSYKNEYQTMEVQNNSVVIKCDGLYIIYLKGSFFQEVKIDLHFREDHNPISIPMLNDGRRIVFTVVASLAFKDKVYLTVNAPDTLCEHLQINDGELIVVQLTPGYCAPEGSYHSTVNQVPLGGGSGGGSSSPAKDPPIQRLRGAVTRCEDGQLFISSYKNEYQTMEVQNNSVVIKCDGLYIIYLKGSFFQEVKIDLHFREDHNPISIPMLNDGRRIVFTVVASLAFKDKVYLTVNAPDTLCEHLQINDGELIVVQLTPGYCAPEGSYHSTVNQVPLGGGSGGGSSSPAKDPPIQRLRGAVTRCEDGQLFISSYKNEYQTMEVQNNSVVIKCDGLYIIYLKGSFFQEVKIDLHFREDHNPISIPMLNDGRRIVFTVVASLAFKDKVYLTVNAPDTLCEHLQINDGELIVVQLTPGYCAPEGSYHSTVNQVPL	triggered significantly higher T cell responses compared to the None (PBS) control group	–	–	–	–
